Where two headings read alike, the source gives them in different places.

Assay [1] addresses T1, HA of A/South Carolina/1/1918 (H1N1) (influenza A virus (H1N1), UniProt Q9WFX3 18-529). Description: Octet (BLI) with HA. On the technique in general: In BLI a coated tip is dipped into the sample, and binding shifts an interference pattern.
Assay [2] deals with HA of A/Japan/305/1957 (H2N2) (influenza A virus (H2N2), UniProt P03451 16-525). Briefly: Octet (BLI) with HA.
In assay [3] the target is T2, HA of A/Hong Kong/1/1968 (H3N2) (influenza A virus (H3N2), UniProt Q91MA7 17-530). Briefly: Octet (BLI) with HA.
Assay [4] addresses T3, HA of A/turkey/Wisconsin/1/1966 (H9N2) (influenza A virus (H9N2), UniProt P03457 19-526). Briefly: Octet (BLI) with HA.
The target in assay [5] is T1, HA of A/South Carolina/1/1918 (H1N1). Briefly: ELISA (highest dilution tested 1/50,000). On the technique in general: An ELISA detects its analyte on a solid surface through an enzyme-linked reagent.
The target of assay [6] is T2, HA of A/Hong Kong/1/1968 (H3N2). Briefly: ELISA (highest dilution tested 1/50,000).
Assay [7] deals with T4, HA of A/Singapore/1/1957 (H2) (influenza A virus (H2), UniProt Q67333 16-525). Briefly: ELISA, recombinant HA.
The target in assay [8] is T2, HA of A/Hong Kong/1/1968 (H3N2). Description: ELISA, recombinant HA.
In assay [9] the target is T3, HA of A/turkey/Wisconsin/1/1966 (H9N2). Briefly: ELISA, recombinant HA.
In assay [10] the target is T4, HA of A/Singapore/1/1957 (H2). Description: ELISA, recombinant HA. This is another data set of the same source.
For assay [11], the target named is T2, HA of A/Hong Kong/1/1968 (H3N2). Description: ELISA, recombinant HA. This is another data set of the same source.
Assay [12] has as its target T1, HA of A/South Carolina/1/1918 (H1N1). Description: BLI, Fab on immobilized biotinylated HA.
For assay [13], the target named is HA of A/Victoria/3/1975 (H3N2) (influenza A virus (H3N2), UniProt P03435 17-531). Description: BLI, Fab on immobilized biotinylated HA.
Sequence of HA of A/Victoria/3/1975 (H3N2) (P03435 17-531 limits assumed): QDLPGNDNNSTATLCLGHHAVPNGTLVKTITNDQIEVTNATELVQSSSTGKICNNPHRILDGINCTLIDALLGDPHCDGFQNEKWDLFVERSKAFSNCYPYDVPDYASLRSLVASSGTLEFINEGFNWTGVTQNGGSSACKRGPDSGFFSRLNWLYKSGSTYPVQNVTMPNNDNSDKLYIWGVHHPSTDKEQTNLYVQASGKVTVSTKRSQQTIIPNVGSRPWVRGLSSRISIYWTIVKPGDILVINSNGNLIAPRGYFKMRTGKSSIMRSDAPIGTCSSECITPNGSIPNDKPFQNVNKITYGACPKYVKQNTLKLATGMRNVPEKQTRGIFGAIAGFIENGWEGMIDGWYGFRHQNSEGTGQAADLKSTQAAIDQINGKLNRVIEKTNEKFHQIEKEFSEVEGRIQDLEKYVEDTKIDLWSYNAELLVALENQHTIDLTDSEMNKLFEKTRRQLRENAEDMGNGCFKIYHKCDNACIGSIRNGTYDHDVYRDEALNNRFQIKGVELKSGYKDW
Assay [14] has as its target T2, HA of A/Hong Kong/1/1968 (H3N2). Description: BLI, Fab on immobilized biotinylated HA.
Assay [15] concerns the target HA of A/Perth/16/2009 (H3N2) (influenza A virus (H3N2), UniProt O11283 17-530). Briefly: BLI, Fab on immobilized biotinylated HA.
Assay [16] addresses T1, HA of A/South Carolina/1/1918 (H1N1). Description: BLI, Fab on immobilized biotinylated HA. This is another data set of the same source.
Assay [17] concerns the target T2, HA of A/Hong Kong/1/1968 (H3N2). Description: BLI, Fab on immobilized biotinylated HA. The source holds these as a separate data set.
The target of assay [18] is T4, HA of A/Singapore/1/1957 (H2). Description: ELISA.
Assay [19] shares this target. Briefly: ELISA. This is another data set of the same source.
The target of assay [20] is T3, HA of A/turkey/Wisconsin/1/1966 (H9N2). Description: ELISA, recombinant HA. The source holds these as a separate data set.
In assay [21] the target is T1, HA of A/South Carolina/1/1918 (H1N1). Briefly: BLI, 1:1 global fit; Table S2 of the text prints 46 for this strain.
Assay [22] deals with T4, HA of A/Singapore/1/1957 (H2). Briefly: ELISA. This is another data set of the same source.
For assay [23] the target is unchanged. Description: ELISA. This is another data set of the same source.

T3 sequence (P03457 19-526 limits assumed): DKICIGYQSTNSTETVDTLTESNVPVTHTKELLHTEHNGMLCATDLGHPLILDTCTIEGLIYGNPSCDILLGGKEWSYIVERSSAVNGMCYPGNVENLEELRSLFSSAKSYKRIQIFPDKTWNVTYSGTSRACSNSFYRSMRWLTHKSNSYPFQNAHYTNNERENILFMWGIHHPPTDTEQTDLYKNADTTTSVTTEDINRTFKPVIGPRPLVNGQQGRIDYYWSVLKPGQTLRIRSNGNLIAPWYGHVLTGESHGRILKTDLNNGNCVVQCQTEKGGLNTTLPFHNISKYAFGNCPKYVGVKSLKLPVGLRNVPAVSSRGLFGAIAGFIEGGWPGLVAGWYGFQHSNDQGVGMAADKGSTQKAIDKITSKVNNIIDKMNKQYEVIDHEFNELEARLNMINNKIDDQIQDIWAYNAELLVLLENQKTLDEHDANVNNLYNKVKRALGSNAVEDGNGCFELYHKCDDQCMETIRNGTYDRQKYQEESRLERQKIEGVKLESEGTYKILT
T1 sequence (Q9WFX3 18-529): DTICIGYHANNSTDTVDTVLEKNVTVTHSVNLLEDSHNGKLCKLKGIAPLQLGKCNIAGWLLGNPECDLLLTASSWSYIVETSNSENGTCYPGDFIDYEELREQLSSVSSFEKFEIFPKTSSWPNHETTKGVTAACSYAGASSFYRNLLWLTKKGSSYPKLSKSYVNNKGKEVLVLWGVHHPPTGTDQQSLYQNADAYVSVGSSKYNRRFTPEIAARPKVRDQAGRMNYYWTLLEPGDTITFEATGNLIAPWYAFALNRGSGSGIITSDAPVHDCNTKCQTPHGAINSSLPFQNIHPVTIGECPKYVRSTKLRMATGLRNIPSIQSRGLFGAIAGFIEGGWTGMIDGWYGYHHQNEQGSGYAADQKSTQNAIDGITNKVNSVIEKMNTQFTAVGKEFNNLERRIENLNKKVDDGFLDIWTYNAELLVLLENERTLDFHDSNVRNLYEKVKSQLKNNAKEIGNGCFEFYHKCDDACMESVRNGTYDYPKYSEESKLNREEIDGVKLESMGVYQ

B1: H5.31 (antibody, V domains shown)
VH: EVQLVQSGGGLVQPGGSLRLSCEASRFTSSSYWITWVRQAPGKGLEWVANIKQDGSEKYFVDSVKGRFTISRDNASNSLYLQMSSLRAEDTAVYYCARGFLERLLLGRQGAYYYGMDVWGQGTTVTVSS
VL: DIQMTQSPSSLSASVGDRVTMTCRASQSISSSLNWYQQKPGKAPKLLIYAASNLQSGVPSRFSGSGSGTDFTLTISSLQPEDFATYYCQQSYTMPPELTFGGGTKVQIK
With B1, the Kd amounted to 0.17 nM in assay [1], 0.13 nM in assay [2], 5.4 nM in [3] and 17 nM in assay [4]. For the same molecule, the values for the EC50 in assay [5] and in [6] were 0.031 µg/mL and 0.024 µg/mL, respectively.

B2: H5.28 (antibody, V domains shown)
VH: EVQLVESGGGLVQPGGSLRLSCAASGFTFSTYWMTWVRQAPGKGLEWVANINQDGGEKYFVDSVKGRFTISRDNAKNSLFLQMNTLRAEDTAVYYCARGFLERLLLGRQGAYYYGMDVWGQGTTVTVSS
VL: DIQMTQSPSSLSASVGDRVSMTCRASQIISSSLNWYQQKPGKAPKLLIYAASNLQSGVPSRFSGSGSGTDFTLTISSLQPEDFATYYCQQSYSTPPELTFGGGTKVEIK
For B2, the Kd in assay [1] was found to be 0.11 nM; in assay [2] it was 0.19 nM; in assay [3] it was 75 nM; in [4] it was 65 nM. Moreover, the concentration for a half-maximal effect (EC50) in [5] was determined as 0.081 µg/mL; in assay [6] it was 16 µg/mL.

B3: UCA (antibody, V domains shown)
VH: QVQLQESGPGLVKPSETLSLTCTVSGGSVSSGSYYWSWIRQPPGKGLEWIGYIYYSGSTNYNPSLKSRVTISVDTSKNQFSLKLSSVTAADTAVYYCARGTEDLGYCSGGSCPNHWGQGTLVTV
VL: not shown
Regarding B3, the EC50 turned out to be 0.07 µg/mL in [7]; 0.054 µg/mL in assay [8]; 0.359 µg/mL in assay [9]; 0.028 µg/mL in assay [10]; 0.021 µg/mL in assay [11].

B4: FluA-20 UCA Fab (unmutated common ancestor of FluA-20) (Fab, V domains shown)
VH: QVQLQESGPGLVKPSETLSLTCTVSGGSVSSGSYYWSWIRQPPGKGLEWIGYIYYSGSTNYNPSLKSRVTISVDTSKNQFSLKLSSVTAADTAVYYCARGTEDLGYCSGGSCPNHWGQGTLVTV
VL: not shown
As for B4, the Kd is 937 nM in [12], 486 nM in assay [14], 937 nM in assay [16] and 486 nM in assay [17]. In addition, the binding result in assay [13] and in assay [15] was “no binding (tested: 2 µM)” each time.

B5: FluA-20 (hybridoma-produced IgG) (antibody, V domains shown)
VH: QVQLQESGPGLVKPSETLSLTCSVSGVSVTSDIYYWTWIRQPPGKGLEWIGYIFYNGDTNYNPSLKSRVTMSIDTSKNEFSLRLTSVTAADTAVYFCARGTEDLGYCSSGSCPNHWGQGTLVTVSS
VL: DIQMTQSPSSLSASIGDRVTITCRPSQNIRSFLNWFQHKPGKAPKLLIYAASNLQSGVPSRFSGSGSGTEFTLTIRSLQPEDFATYYCQQSYNTPPTFGQGTKVEIK
Consider B5, for which the EC50 worked out at 0.063 µg/mL in assay [9]; 0.18 µg/mL in assay [18]; 0.007 µg/mL in [19]; 0.009 µg/mL in assay [10]; 0.022 µg/mL in assay [20].

B6: FluA-20 Fab (Fab, V domains shown)
VH: QVQLQESGPGLVKPSETLSLTCSVSGVSVTSDIYYWTWIRQPPGKGLEWIGYIFYNGDTNYNPSLKSRVTMSIDTSKNEFSLRLTSVTAADTAVYFCARGTEDLGYCSSGSCPNHWGQGTLVTVSS
VL: DIQMTQSPSSLSASIGDRVTITCRPSQNIRSFLNWFQHKPGKAPKLLIYAASNLQSGVPSRFSGSGSGTEFTLTIRSLQPEDFATYYCQQSYNTPPTFGQGTKVEIK
For B6, the Kd was about 48 nM in assay [21], 46 nM in assay [12], 3460 nM in assay [13] and 46 nM in assay [16].

B7: rFluA-20 (recombinant FluA-20 IgG) (antibody, V domains shown)
VH: QVQLQESGPGLVKPSETLSLTCSVSGVSVTSDIYYWTWIRQPPGKGLEWIGYIFYNGDTNYNPSLKSRVTMSIDTSKNEFSLRLTSVTAADTAVYFCARGTEDLGYCSSGSCPNHWGQGTLVTVSS
VL: DIQMTQSPSSLSASIGDRVTITCRPSQNIRSFLNWFQHKPGKAPKLLIYAASNLQSGVPSRFSGSGSGTEFTLTIRSLQPEDFATYYCQQSYNTPPTFGQGTKVEIK
Consider B7, for which the EC50 in assay [22] amounted to 0.011 µg/mL; in assay [7], 0.178 µg/mL; in [9] it was 0.193 µg/mL; in assay [23], 0.011 µg/mL; in [20] it was 0.016 µg/mL.

The term Kd denotes the constant that tells how readily two partners part at equilibrium. Low values mean tighter binding, high ones weaker binding. In general, EC50 refers to the concentration that produces a half-maximal response.

The values above are taken from patent publication US20210252150A1 (VANDERBILT UNIVERSITY, published 2021).
